Experimental data published in article PMC4216079, “Phenotypic and Enzymatic Comparative Analysis of the KPC Variants, KPC-2 and Its Recently Discovered Variant KPC-15” (PLoS ONE, 2014).

Tests used:
[1] = tested on: C[C@@H](O)[C@H]1C(=O)N2C(C(=O)O)=C(S[C@@H]3CN[C@H](C(=O)N(C)C)C3)[C@H](C)[C@H]12; assay: purified protein; conditions: 10 mM PBS, pH 7.4, 25°C, 10 nM enzyme
[2] = tested on: Cc1nnc(SCC2=C(C(=O)O)N3C(=O)[C@@H](NC(=O)Cn4cnnn4)[C@H]3SC2)s1; assay: purified protein; conditions: 10 mM PBS, pH 7.4, 25°C, 10 nM enzyme
[3] = tested on: CO/N=C(\C(=O)N[C@@H]1C(=O)N2C(C(=O)O)=C(COC(C)=O)CS[C@H]12)c1csc(N)n1; assay: purified protein; conditions: 10 mM PBS, pH 7.4, 25°C, 10 nM enzyme
[4] = tested on: CC(C)(O/N=C(\C(=O)N[C@@H]1C(=O)N2C(C(=O)[O-])=C(C[n+]3ccccc3)CS[C@H]12)c1csc(N)n1)C(=O)O; assay: purified protein; conditions: 10 mM PBS, pH 7.4, 25°C, 10 nM enzyme
[5] = tested on: C[C@@H](O)[C@H]1C(=O)N2C(C(=O)O)=C(SCCN=CN)C[C@H]12; assay: purified protein; conditions: 10 mM PBS, pH 7.4, 25°C, 10 nM enzyme
[6] = target: KPC-2 (Klebsiella pneumoniae, UniProt Q9F663); assay: steady-state hydrolysis, diode array spectrophotometer; conditions: 10 mM PBS, pH 7.4, 25°C; 10 nM enzyme

**Q.** For KPC-2 (Klebsiella pneumoniae), which Km [1] is on record?
**A.** 16.2 ± 3.1 µM

**Q.** And the kcat [1]?
**A.** 4.1 ± 0.99 s⁻¹

**Q.** What about the kcat/Km [1] of the same compound?
**A.** 250000 ± 61000 M⁻¹ s⁻¹

**Q.** What about the Km [2] of the same compound?
**A.** 16 ± 1 µM

**Q.** And the kcat [2]?
**A.** 44 ± 2 s⁻¹

**Q.** And the kcat/Km [2]?
**A.** 2.8e+06 ± 1e+06 M⁻¹ s⁻¹

**Q.** What about the Km [3] of the same compound?
**A.** 124 ± 6 µM

**Q.** And the kcat [3]?
**A.** 52 ± 6 s⁻¹

**Q.** And the Km [4]?
**A.** 217 ± 6 µM

**Q.** And the kcat [4]?
**A.** 0.59 ± 0.83 s⁻¹

**Q.** What about the kcat/Km [4] of the same compound?
**A.** 2700 ± 560 M⁻¹ s⁻¹

**Q.** And the Km [5]?
**A.** 21 ± 2 µM

**Q.** What about the kcat [5] of the same compound?
**A.** 20 ± 1 s⁻¹

**Q.** What about the kcat/Km [5] of the same compound?
**A.** 950000 ± 650000 M⁻¹ s⁻¹

**Q.** For O=C(Cc1cccs1)N[C@@H]1C(=O)N2C(C(=O)O)=C(/C=C/c3ccc([N+](=O)[O-])cc3[N+](=O)[O-])CS[C@H]12 [nitrocefin], which Km [6] is on record?
**A.** 6.5 ± 2.4 µM
